In general, Ki refers to a measure of affinity in units of concentration, obtained from inhibition or displacement. Lower therefore signals higher affinity. For orientation: IC50 means the concentration needed to halve the response being measured. A lower IC50 goes with greater potency.

The target in assay [1] is T1, PTH1 receptor (PTH1R) (Homo sapiens, UniProt Q03431).
T1 construct: PTH1R in membrane fractions of transfected HEK293 cells
T1 sequence (Q03431 27-593): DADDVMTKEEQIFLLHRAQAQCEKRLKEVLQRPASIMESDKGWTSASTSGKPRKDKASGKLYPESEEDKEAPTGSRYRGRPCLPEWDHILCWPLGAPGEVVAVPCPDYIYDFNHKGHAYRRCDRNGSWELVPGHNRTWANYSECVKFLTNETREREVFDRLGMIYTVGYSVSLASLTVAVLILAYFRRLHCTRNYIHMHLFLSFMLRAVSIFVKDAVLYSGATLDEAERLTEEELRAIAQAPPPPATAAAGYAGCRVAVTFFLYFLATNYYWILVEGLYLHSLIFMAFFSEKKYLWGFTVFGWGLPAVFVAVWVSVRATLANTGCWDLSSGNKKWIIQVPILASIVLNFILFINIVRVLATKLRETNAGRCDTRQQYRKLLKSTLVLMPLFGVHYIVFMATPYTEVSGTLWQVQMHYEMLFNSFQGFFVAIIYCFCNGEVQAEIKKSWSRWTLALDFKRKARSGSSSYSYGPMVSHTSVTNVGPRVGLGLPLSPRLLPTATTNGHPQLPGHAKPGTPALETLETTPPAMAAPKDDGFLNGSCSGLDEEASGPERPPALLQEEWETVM
As to the kind of experiment: competitive fluorescence anisotropy displacement of PTH([…])TMR. It is filed as binding. A general note: Fluorescence polarisation rises when a labelled molecule tumbles more slowly, as on binding a larger partner.

For assay [2], the target named is T1, PTH1 receptor (PTH1R). As to the kind of experiment: competitive fluorescence anisotropy displacement of PTH([…])TMR; supported by PTH-CC FRET conformational sensor. It is filed as binding.
For assay [3], the target named is Parathyroid hormone type 1 receptor (PTH1R) (human) (UniProt Q03431).
Assay [4] has the same target. In words: fluorescence polarisation; fluorescence anisotropy, competitive displacement of 2 nM PTH(1–34)^TMR from PTH1R membrane fractions of transfected HEK293 cells; DPBS, 4 hours, room temperature; 96-well plates, 150 µL; IC50 converted to Ki by the Cheng-Prusoff equation.

For `CC/C=C\C/C=C\C/C=C\C/C=C\C/C=C\C/C=C\CCC(=O)O` [DHA, docosahexaenoic acid], the Ki at PTH1 receptor (PTH1R) [1] was determined as 0.54 ± 0.16 nM.
In turn, `CC/C=C\C/C=C\C/C=C\C/C=C\C/C=C\CCCC(=O)O` [EPA, eicosapentaenoic acid] gave a Ki on PTH1 receptor (PTH1R) [2] of 0.69 ± 0.25 nM.
Compound Human PTH(1–34) (peptide) showed an ERK1/2 phosphorylation (Emax = pERKmax/ERK, western blot) in HEK293 cells transfected with PTH1R, PTH(1–34) dose response, 5 minutes; no significant increase in untransfected HEK293 cells in assay [3] of 3.5 pERK/ERK. In assay [4], this compound returned an IC50 of 3.43 nM and an inhibition constant (Ki) of 2.4 nM.
The compound “Human [Lys-13(Nε-5-carboxy-TMR)]PTH(1–34)NH2 (peptide)” showed a Ki in assay [4] of 4.66 nM.

The record behind these values is paper PMC3531455, “PTH1 Receptor Is Involved in Mediating Cellular Response to Long-Chain Polyunsaturated Fatty Acids” (PLoS ONE, 2012).
